Reference: patent US20170008943A1 (Novo Nordisk, published 2017)
*1 amine or outer side, *2 acyl side, *3 side chain or, on linkers, in order; H or OH if unused. Side-chain parts run from the residue outwards. [ ]: non-standard residue; d: D form. The star is where a group is joined. γGlu = O=C(O)[C@H](CCC(=O)[*:2])N[*:1]; Desaminohistidyl = O=C(CCc1c[nH]cn1)*

B1: N^ε24-[(4S)-4-[[(4S)-4-[[(4S)-4-[[(4S)-4-acetamido-4-carboxybutanoyl]amino]-4-carboxybutanoyl]amino]-4-carboxybutanoyl]amino]-4-carboxybutanoyl]-[Imp1, His3, … (peptide)
peptide: [Desaminohistidyl]SHGTFTSDYSKYLDLRRAQEFVK([γGlu-γGlu-γGlu-γGlu-Ac])WLLST-OH
SMILES: CC(=O)N[C@@H](CCC(=O)N[C@@H](CCC(=O)N[C@@H](CCC(=O)N[C@@H](CCC(=O)NCCCC[C@H](NC(=O)[C@@H](NC(=O)[C@H](Cc1ccccc1)NC(=O)[C@H](CCC(=O)O)NC(=O)[C@H](CCC(N)=O)NC(=O)[C@H](C)NC(=O)[C@H](CCCNC(=N)N)NC(=O)[C@H](CCCNC(=N)N)NC(=O)[C@H](CC(C)C)NC(=O)[C@H](CC(=O)O)NC(=O)[C@H](CC(C)C)NC(=O)[C@H](Cc1ccc(O)cc1)NC(=O)[C@H](CCCCN)NC(=O)[C@H](CO)NC(=O)[C@H](Cc1ccc(O)cc1)NC(=O)[C@H](CC(=O)O)NC(=O)[C@H](CO)NC(=O)[C@@H](NC(=O)[C@H](Cc1ccccc1)NC(=O)[C@@H](NC(=O)CNC(=O)[C@H](Cc1c[nH]cn1)NC(=O)[C@H](CO)NC(=O)CCc1c[nH]cn1)[C@@H](C)O)[C@@H](C)O)C(C)C)C(=O)N[C@@H](Cc1c[nH]c2ccccc12)C(=O)N[C@@H](CC(C)C)C(=O)N[C@@H](CC(C)C)C(=O)N[C@@H](CO)C(=O)N[C@H](C(=O)O)[C@@H](C)O)C(=O)O)C(=O)O)C(=O)O)C(=O)O
notes: Imp written X under substitutions
B2: N^ε29-[(4S)-4-[[(4S)-4-[[(4S)-4-[[(4S)-4-acetamido-4-carboxybutanoyl]amino]-4-carboxybutanoyl]amino]-4-carboxybutanoyl]amino]-4-carboxybutanoyl]-[Imp1, His3, … (peptide)
peptide: [Desaminohistidyl]SHGTFTSDYSKYLESRRAQEFVQWLLSK([γGlu-γGlu-γGlu-γGlu-Ac])-OH
SMILES: CC(=O)N[C@@H](CCC(=O)N[C@@H](CCC(=O)N[C@@H](CCC(=O)N[C@@H](CCC(=O)NCCCC[C@H](NC(=O)[C@H](CO)NC(=O)[C@H](CC(C)C)NC(=O)[C@H](CC(C)C)NC(=O)[C@H](Cc1c[nH]c2ccccc12)NC(=O)[C@H](CCC(N)=O)NC(=O)[C@@H](NC(=O)[C@H](Cc1ccccc1)NC(=O)[C@H](CCC(=O)O)NC(=O)[C@H](CCC(N)=O)NC(=O)[C@H](C)NC(=O)[C@H](CCCNC(=N)N)NC(=O)[C@H](CCCNC(=N)N)NC(=O)[C@H](CO)NC(=O)[C@H](CCC(=O)O)NC(=O)[C@H](CC(C)C)NC(=O)[C@H](Cc1ccc(O)cc1)NC(=O)[C@H](CCCCN)NC(=O)[C@H](CO)NC(=O)[C@H](Cc1ccc(O)cc1)NC(=O)[C@H](CC(=O)O)NC(=O)[C@H](CO)NC(=O)[C@@H](NC(=O)[C@H](Cc1ccccc1)NC(=O)[C@@H](NC(=O)CNC(=O)[C@H](Cc1c[nH]cn1)NC(=O)[C@H](CO)NC(=O)CCc1c[nH]cn1)[C@@H](C)O)[C@@H](C)O)C(C)C)C(=O)O)C(=O)O)C(=O)O)C(=O)O)C(=O)O
notes: as for B1
B3: Nε^21-[(4S)-4-[[(4S)-4-[[(4S)-4-[[(4S)-4-acetamido-4-carboxybutanoyl]amino]-4-carboxybutanoyl]amino]-4-carboxybutanoyl]amino]-4-carboxybutanoyl]-[Imp1, His3, … (peptide)
peptide: [Desaminohistidyl]SHGTFTSDYSKYLESRRAQK([γGlu-γGlu-γGlu-γGlu-Ac])FVQWLLST-OH
SMILES: CC(=O)N[C@@H](CCC(=O)N[C@@H](CCC(=O)N[C@@H](CCC(=O)N[C@@H](CCC(=O)NCCCC[C@H](NC(=O)[C@H](CCC(N)=O)NC(=O)[C@H](C)NC(=O)[C@H](CCCNC(=N)N)NC(=O)[C@H](CCCNC(=N)N)NC(=O)[C@H](CO)NC(=O)[C@H](CCC(=O)O)NC(=O)[C@H](CC(C)C)NC(=O)[C@H](Cc1ccc(O)cc1)NC(=O)[C@H](CCCCN)NC(=O)[C@H](CO)NC(=O)[C@H](Cc1ccc(O)cc1)NC(=O)[C@H](CC(=O)O)NC(=O)[C@H](CO)NC(=O)[C@@H](NC(=O)[C@H](Cc1ccccc1)NC(=O)[C@@H](NC(=O)CNC(=O)[C@H](Cc1c[nH]cn1)NC(=O)[C@H](CO)NC(=O)CCc1c[nH]cn1)[C@@H](C)O)[C@@H](C)O)C(=O)N[C@@H](Cc1ccccc1)C(=O)N[C@H](C(=O)N[C@@H](CCC(N)=O)C(=O)N[C@@H](Cc1c[nH]c2ccccc12)C(=O)N[C@@H](CC(C)C)C(=O)N[C@@H](CC(C)C)C(=O)N[C@@H](CO)C(=O)N[C@H](C(=O)O)[C@@H](C)O)C(C)C)C(=O)O)C(=O)O)C(=O)O)C(=O)O
notes: as for B1
B4: N^ε24-[(4S)-4-[[(4S)-4-[[(4S)-4-[[(4S)-4-acetamido-4-carboxybutanoyl]amino]-4-carboxybutanoyl]amino]-4-carboxybutanoyl]amino]-4-carboxybutanoyl]-[Imp1, His3, … (peptide)
peptide: [Desaminohistidyl]SHGTFTSDYSKYLDLRRAQDFVK([γGlu-γGlu-γGlu-γGlu-Ac])WLLST-OH
SMILES: CC(=O)N[C@@H](CCC(=O)N[C@@H](CCC(=O)N[C@@H](CCC(=O)N[C@@H](CCC(=O)NCCCC[C@H](NC(=O)[C@@H](NC(=O)[C@H](Cc1ccccc1)NC(=O)[C@H](CC(=O)O)NC(=O)[C@H](CCC(N)=O)NC(=O)[C@H](C)NC(=O)[C@H](CCCNC(=N)N)NC(=O)[C@H](CCCNC(=N)N)NC(=O)[C@H](CC(C)C)NC(=O)[C@H](CC(=O)O)NC(=O)[C@H](CC(C)C)NC(=O)[C@H](Cc1ccc(O)cc1)NC(=O)[C@H](CCCCN)NC(=O)[C@H](CO)NC(=O)[C@H](Cc1ccc(O)cc1)NC(=O)[C@H](CC(=O)O)NC(=O)[C@H](CO)NC(=O)[C@@H](NC(=O)[C@H](Cc1ccccc1)NC(=O)[C@@H](NC(=O)CNC(=O)[C@H](Cc1c[nH]cn1)NC(=O)[C@H](CO)NC(=O)CCc1c[nH]cn1)[C@@H](C)O)[C@@H](C)O)C(C)C)C(=O)N[C@@H](Cc1c[nH]c2ccccc12)C(=O)N[C@@H](CC(C)C)C(=O)N[C@@H](CC(C)C)C(=O)N[C@@H](CO)C(=O)N[C@H](C(=O)O)[C@@H](C)O)C(=O)O)C(=O)O)C(=O)O)C(=O)O
notes: as for B1
B5: N^ε28-[(4S)-4-[[(4S)-4-[[(4S)-4-[[(4S)-4-acetamido-4-carboxybutanoyl]amino]-4-carboxybutanoyl]amino]-4-carboxybutanoyl]amino]-4-carboxybutanoyl]-[Imp1, His3, … (peptide)
peptide: [Desaminohistidyl]SHGTFTSDYSKYLESRRAQEFVQWLLK([γGlu-γGlu-γGlu-γGlu-Ac])T-OH
SMILES: CC(=O)N[C@@H](CCC(=O)N[C@@H](CCC(=O)N[C@@H](CCC(=O)N[C@@H](CCC(=O)NCCCC[C@H](NC(=O)[C@H](CC(C)C)NC(=O)[C@H](CC(C)C)NC(=O)[C@H](Cc1c[nH]c2ccccc12)NC(=O)[C@H](CCC(N)=O)NC(=O)[C@@H](NC(=O)[C@H](Cc1ccccc1)NC(=O)[C@H](CCC(=O)O)NC(=O)[C@H](CCC(N)=O)NC(=O)[C@H](C)NC(=O)[C@H](CCCNC(=N)N)NC(=O)[C@H](CCCNC(=N)N)NC(=O)[C@H](CO)NC(=O)[C@H](CCC(=O)O)NC(=O)[C@H](CC(C)C)NC(=O)[C@H](Cc1ccc(O)cc1)NC(=O)[C@H](CCCCN)NC(=O)[C@H](CO)NC(=O)[C@H](Cc1ccc(O)cc1)NC(=O)[C@H](CC(=O)O)NC(=O)[C@H](CO)NC(=O)[C@@H](NC(=O)[C@H](Cc1ccccc1)NC(=O)[C@@H](NC(=O)CNC(=O)[C@H](Cc1c[nH]cn1)NC(=O)[C@H](CO)NC(=O)CCc1c[nH]cn1)[C@@H](C)O)[C@@H](C)O)C(C)C)C(=O)N[C@H](C(=O)O)[C@@H](C)O)C(=O)O)C(=O)O)C(=O)O)C(=O)O
notes: as for B1
B6: N^α([Imp1, His3, Glu15, Glu21, Leu27, … (peptide)
peptide: [Desaminohistidyl]SHGTFTSDYSKYLESRRAQEFVQWLLSTK([γGlu-γGlu-γGlu-γGlu-Ac])-OH
SMILES: CC(=O)N[C@@H](CCC(=O)N[C@@H](CCC(=O)N[C@@H](CCC(=O)N[C@@H](CCC(=O)NCCCC[C@H](NC(=O)[C@@H](NC(=O)[C@H](CO)NC(=O)[C@H](CC(C)C)NC(=O)[C@H](CC(C)C)NC(=O)[C@H](Cc1c[nH]c2ccccc12)NC(=O)[C@H](CCC(N)=O)NC(=O)[C@@H](NC(=O)[C@H](Cc1ccccc1)NC(=O)[C@H](CCC(=O)O)NC(=O)[C@H](CCC(N)=O)NC(=O)[C@H](C)NC(=O)[C@H](CCCNC(=N)N)NC(=O)[C@H](CCCNC(=N)N)NC(=O)[C@H](CO)NC(=O)[C@H](CCC(=O)O)NC(=O)[C@H](CC(C)C)NC(=O)[C@H](Cc1ccc(O)cc1)NC(=O)[C@H](CCCCN)NC(=O)[C@H](CO)NC(=O)[C@H](Cc1ccc(O)cc1)NC(=O)[C@H](CC(=O)O)NC(=O)[C@H](CO)NC(=O)[C@@H](NC(=O)[C@H](Cc1ccccc1)NC(=O)[C@@H](NC(=O)CNC(=O)[C@H](Cc1c[nH]cn1)NC(=O)[C@H](CO)NC(=O)CCc1c[nH]cn1)[C@@H](C)O)[C@@H](C)O)C(C)C)[C@@H](C)O)C(=O)O)C(=O)O)C(=O)O)C(=O)O)C(=O)O
notes: as for B1
B7: N^ε24-[2-[[(4S)-4-[[(4S)-4-[[(4S)-4-[[(4S)-4-acetamido-4-carboxybutanoyl]amino]-4-carboxybutanoyl]amino]-4-carboxybutanoyl]amino]-4-carboxybutanoyl]amino]acetyl … (peptide)
peptide: [Desaminohistidyl]SHGTFTSDYSKYLESRRAQEFVK([Gly-γGlu-γGlu-γGlu-γGlu-Ac])WLLST-OH
SMILES: CC(=O)N[C@@H](CCC(=O)N[C@@H](CCC(=O)N[C@@H](CCC(=O)N[C@@H](CCC(=O)NCC(=O)NCCCC[C@H](NC(=O)[C@@H](NC(=O)[C@H](Cc1ccccc1)NC(=O)[C@H](CCC(=O)O)NC(=O)[C@H](CCC(N)=O)NC(=O)[C@H](C)NC(=O)[C@H](CCCNC(=N)N)NC(=O)[C@H](CCCNC(=N)N)NC(=O)[C@H](CO)NC(=O)[C@H](CCC(=O)O)NC(=O)[C@H](CC(C)C)NC(=O)[C@H](Cc1ccc(O)cc1)NC(=O)[C@H](CCCCN)NC(=O)[C@H](CO)NC(=O)[C@H](Cc1ccc(O)cc1)NC(=O)[C@H](CC(=O)O)NC(=O)[C@H](CO)NC(=O)[C@@H](NC(=O)[C@H](Cc1ccccc1)NC(=O)[C@@H](NC(=O)CNC(=O)[C@H](Cc1c[nH]cn1)NC(=O)[C@H](CO)NC(=O)CCc1c[nH]cn1)[C@@H](C)O)[C@@H](C)O)C(C)C)C(=O)N[C@@H](Cc1c[nH]c2ccccc12)C(=O)N[C@@H](CC(C)C)C(=O)N[C@@H](CC(C)C)C(=O)N[C@@H](CO)C(=O)N[C@H](C(=O)O)[C@@H](C)O)C(=O)O)C(=O)O)C(=O)O)C(=O)O
notes: as for B1

These binders were tested against T1, human glucagon receptor (human, UniProt P47871 26-477) (assay: displacement of 125I-glucagon from BHK membranes with human glucagon receptor (SPA), Assay (II)(b)).
T1 construct: whole, on cells; Potency assay (I)(b): whole BHK cells (clone pLJ6'-4-25) with CRE luciferase; also called hGlucagonR; hGCGR
T1 sequence (P47871 26-477): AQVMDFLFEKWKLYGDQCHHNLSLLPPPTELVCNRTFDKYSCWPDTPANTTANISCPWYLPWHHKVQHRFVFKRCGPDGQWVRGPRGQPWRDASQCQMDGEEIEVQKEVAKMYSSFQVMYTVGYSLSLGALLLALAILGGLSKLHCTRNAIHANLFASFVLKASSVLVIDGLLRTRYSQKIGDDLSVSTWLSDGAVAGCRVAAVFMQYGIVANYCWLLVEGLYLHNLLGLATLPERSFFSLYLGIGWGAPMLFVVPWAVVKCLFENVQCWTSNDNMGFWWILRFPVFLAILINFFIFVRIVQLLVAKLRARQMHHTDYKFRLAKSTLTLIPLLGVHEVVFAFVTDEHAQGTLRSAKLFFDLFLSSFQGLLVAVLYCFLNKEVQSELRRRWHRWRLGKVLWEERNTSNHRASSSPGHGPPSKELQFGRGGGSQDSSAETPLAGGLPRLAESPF

Compared with B1, B2 is 25-fold higher in IC50: 0.2 nM for the first, 5.1 nM for the second. The first is the more potent here.

Going from B3 to B4, the IC50 falls from 5.2 nM to 0.5 nM (10-fold).

B5 and B6 are within 1.5-fold of each other in IC50: 2.6 nM for the first, 2 nM for the second.

B7 showed an IC50 of 2.5 nM.

What follows are binders tested against T1, human glucagon receptor (assay: cell-based or functional assay).

Going from B1 to B2, the “EC50 hGlucagonR (pM), CRE luciferase reporter in BHK cells” value (“EC50 hGlucagonR (pM)” for short) rises from 1 pM to 4 pM.

Going from B3 to B4, the “EC50 hGlucagonR (pM)” value falls from 17 pM to 3 pM.

Going from B5 to B6, the “EC50 hGlucagonR (pM)” value falls from 6 pM to 4 pM.

In the case of B7, the “EC50 hGlucagonR (pM)” value is reported as 9.9 pM.
